According to patent publication US20200317768A1 (published 2020):
Numbering of substitutions follows the chain as printed. Names and notes keep the numbering of the source.

Columns and labels:
Experiment in all cases: SPR (BIACORE), antibody captured, FcγR analyte
[1] = biological target: T1, cynomolgus monkey FcγRIIa1 extracellular domain, C-terminal His-tag (cynomolgus monkey)
T1 construct: also called cyno FcγRIIa1; cynoFcgRIIa1; not shown: His-tag added to C-terminus
T1 chain: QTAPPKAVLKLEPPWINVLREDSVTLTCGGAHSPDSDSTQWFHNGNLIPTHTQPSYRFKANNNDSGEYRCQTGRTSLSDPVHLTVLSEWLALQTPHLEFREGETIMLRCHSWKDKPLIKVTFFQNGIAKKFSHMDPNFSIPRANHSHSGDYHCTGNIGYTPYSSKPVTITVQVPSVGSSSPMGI
Protocol: (§1) The kinetic analysis of interactions between these antibodies and FcγR was carried out using BIACORE® T200 or BIACORE® 4000 (GE Healthcare). HBS-EP+ (GE Healthcare) was used as the running buffer, and the measurement temperature was set to 25° C. A chip produced by immobilizing Protein A. Protein A/G or mouse anti-human IgG kappa light chain (BD Biosciences) onto a Series S Sensor Chip CM4 or CM5 (GE Healthcare) by the amine-coupling method was used. […] After the measurement, the antibody captured on the chip was washed off by allowing reaction with 10 mM glycine-HCl, pH1.5 and 25 mM NaOH so that the chip was regenerated and used repeatedly. The sensorgrams obtained as measurement results were analyzed by the 1:1 Langmuir binding model using the BIACORE® Evaluation Software to calculate the binding rate constant ka (L/mol/s) and dissociation rate constant kd (l/s), and the dissociation constant KD (mol/L) was calculated from these values. […] Regarding such interactions, KD values were calculated using the following 1:1 binding model described in BIACORE® T100 Software Handbook BR1006-48 Edition AE.
(§2) The behavior of interacting molecules according to the 1:1 binding model on BIACORE® can be described by Equation 1: Req=C·R max/(KD+C)+RI, wherein, Req is a plot of steady-state binding levels to analyte concentration. C is concentration, RI is bulk refractive index contribution in the sample, and Rmax is analyte binding capacity of the surface. When this equation is rearranged, KD can be expressed as Equation 2: KD=C·Rmax/(Req−RI)−C. KD can be calculated by substituting the values of Rmax, RI, and C into Equation 1 or Equation 2. From the current measurement conditions, RI=0, C=2 μmol/L can be used.

[2] = biological target: T2, cynomolgus monkey FcγRIIb extracellular domain, C-terminal His-tag (cynomolgus monkey)
T2 construct: also called cyno FcγRIIb; cynoFcγRIIb; not shown: His-tag added to C-terminus
T2 chain: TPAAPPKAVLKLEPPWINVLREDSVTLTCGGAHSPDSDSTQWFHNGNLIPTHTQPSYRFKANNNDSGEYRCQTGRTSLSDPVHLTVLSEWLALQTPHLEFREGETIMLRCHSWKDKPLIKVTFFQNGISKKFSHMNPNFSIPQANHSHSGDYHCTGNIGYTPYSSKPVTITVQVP
Protocol: as §1, §2

[3] = biological target: T3, cynomolgus monkey FcγRIIIaS extracellular domain, C-terminal His-tag (cynomolgus monkey, UniProt A3RFZ7 21-206 (rhesus entry))
T3 construct: also called cyno FcγRIIIaS; cynoFcγRIIIaS; not shown: His-tag added to C-terminus
T3 sequence (A3RFZ7 21-206): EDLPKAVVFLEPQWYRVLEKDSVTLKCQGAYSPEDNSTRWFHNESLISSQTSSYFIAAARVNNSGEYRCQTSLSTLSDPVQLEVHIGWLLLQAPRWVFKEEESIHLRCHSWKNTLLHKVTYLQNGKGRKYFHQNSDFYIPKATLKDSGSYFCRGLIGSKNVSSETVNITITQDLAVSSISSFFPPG
Protocol: as §1, §2

[4] = biological target: T4, human FcγRIIb extracellular domain, C-terminal His-tag (human, UniProt P31994 43-217)
T4 construct: also called humanFcgRIIb; not shown: His-tag added to C-terminus
T4 sequence: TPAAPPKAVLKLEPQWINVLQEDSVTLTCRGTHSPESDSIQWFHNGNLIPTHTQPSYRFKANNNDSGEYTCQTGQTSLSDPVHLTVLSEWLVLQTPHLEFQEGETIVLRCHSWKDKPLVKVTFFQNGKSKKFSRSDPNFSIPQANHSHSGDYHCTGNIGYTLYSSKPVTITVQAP
Protocol: as §1, §2

B1: MS_M103205H795-SG1/M103202L889-SK1 (antibody, human IgG1, kappa)
heavy: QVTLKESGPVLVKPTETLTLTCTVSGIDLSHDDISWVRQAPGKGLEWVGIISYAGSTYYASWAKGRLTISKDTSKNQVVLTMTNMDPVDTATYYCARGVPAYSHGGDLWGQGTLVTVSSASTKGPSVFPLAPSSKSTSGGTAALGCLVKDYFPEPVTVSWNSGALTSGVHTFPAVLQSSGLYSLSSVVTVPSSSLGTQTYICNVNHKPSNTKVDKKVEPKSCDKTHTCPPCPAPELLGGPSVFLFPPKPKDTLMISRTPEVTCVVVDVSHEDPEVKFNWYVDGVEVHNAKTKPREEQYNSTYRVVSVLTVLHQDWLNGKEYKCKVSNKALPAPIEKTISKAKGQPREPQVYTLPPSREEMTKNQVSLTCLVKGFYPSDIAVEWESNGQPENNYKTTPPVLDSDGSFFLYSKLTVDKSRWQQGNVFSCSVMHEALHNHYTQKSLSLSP
light: DIVMTQSPATLSLSPGERATLSCTSSQSVYHANWLSWFQQKPGQPPKLLIYWASTLAYGVPSRFSGSGSGTDFTLTISSLQPEDAATYYCAGGYGGGRYAFGQGTKVEIKRTVAAPSVFIFPPSDEQLKSGTASVVCLLNNFYPREAKVQWKVDNALQSGNSQESVTEQDSKDSTYSLSSTLTLSKADYEKHKVYACEVTHQGLSSPVTKSFNRGEC
notes: Parent antibody with SG1 human heavy chain constant region; also called MS1032LO06-SG1
Kd [1]: 3200 nM
Kd [2]: 1800 nM
Kd [3]: 360 nM
Kd [4]: 4600 nM

B2: M103205H795-MY101 / M103202L889-SK1 (antibody, human IgG1, kappa)
heavy: QVTLKESGPVLVKPTETLTLTCTVSGIDLSHDDISWVRQAPGKGLEWVGIISYAGSTYYASWAKGRLTISKDTSKNQVVLTMTNMDPVDTATYYCARGVPAYSHGGDLWGQGTLVTVSSASTKGPSVFPLAPSSKSTSGGTAALGCLVKDYFPEPVTVSWNSGALTSGVHTFPAVLQSSGLYSLSSVVTVPSSSLGTQTYICNVNHKPSNTKVDKKVEPKSCDKTHTCPPCPAPELLNGPSVFLFPPKPKDTLMISRTPEVTCVVVDVSEEDPEVKFNWYVDGVEVHNAKTKPREEQYNSTYRVVSVLTVLHQDWLNGKEYKCKVSNKALPKPIEKTISKAKGQPREPQVYTLPPSREEMTKNQVSLTCLVKGFYPSDIAVEWESNGQPENNYKTTPMVLDSDGSFFLYSKLTVDKSRWQQGNVFSCSVMHEALHNHYTQKSLSLSP
light: B1 light
notes: CH with G236N/H268E/A330K/P396M against SG1 (EU numbering); also called MS1032LO06-MY101
Kd [1]: 1100 nM
Kd [2]: 350 nM
Kd [3]: 3200 nM
Kd [4]: 490 nM

B3: M103205H795-MY201 / M103202L889-SK1 (antibody, human IgG1, kappa)
heavy: B2 heavy with E270D, M398P
light: B1 light
notes: CH with G236N/H268D/A330K against SG1 (EU numbering); also called MS1032LO06-MY201
Kd [1]: 1400 nM
Kd [2]: 430 nM
Kd [3]: 5700 nM
Kd [4]: 1100 nM

B4: M103205H795-MY205 / M103202L889-SK1 (antibody, human IgG1, kappa)
heavy: B2 heavy with E270D, Q297L, M398P
light: B1 light
notes: CH with G236N/H268D/Q295L/A330K against SG1 (EU numbering); also called MS1032LO06-MY205
Kd [1]: 900 nM
Kd [2]: 250 nM
Kd [3]: 6000 nM
Kd [4]: 560 nM

B5: M103205H795-MY335 / M103202L889-SK1 (antibody, human IgG1, kappa)
heavy: B2 heavy with N238T, E270D, Q313R, M398P, D415K
light: B1 light
notes: CH with G236T/H268D/Q311R/A330K/D413K against SG1 (EU numbering); also called MS1032LO06-MY335
Kd [1]: 2000 nM
Kd [2]: 650 nM
Kd [3]: 1500 nM
Kd [4]: 2300 nM

B6: M103205H795-MY344 / M103202L889-SK1 (antibody, human IgG1, kappa)
heavy: B2 heavy with E270D, Q297L, Q313R, M398P, D415K
light: B1 light
notes: CH with G236N/H268D/Q295L/Q311R/A330K/D413K against SG1 (EU numbering); also called MS1032LO06-MY344
Kd [1]: 890 nM
Kd [2]: 310 nM
Kd [3]: 4900 nM
Kd [4]: 720 nM

B7: M103205H795-MY351 / M103202L889-SK1 (antibody, human IgG1, kappa)
heavy: B2 heavy with E270D, Q313R, M398P, D415K
light: B1 light
notes: CH with G236N/H268D/Q311R/A330K/D413K against SG1 (EU numbering); also called MS1032LO06-MY351
Kd [1]: 920 nM
Kd [2]: 350 nM
Kd [3]: 5200 nM
Kd [4]: 1200 nM

B8: M103205H795-PK2 / M103202L889-SK1 (antibody, human IgG1, kappa)
heavy: B2 heavy with S402R, D415K
light: B1 light
notes: CH with G236N/H268E/A330K/P396M/S400R/D413K against SG1 (EU numbering); also called MS1032LO06-PK2; MS103205H795-PK2
Kd [1]: 1300 nM
Kd [2]: 380 nM
Kd [3]: 3900 nM
Kd [4]: 590 nM
